# ± gives the standard deviation of the averaged measurements.
# Tested on: ATP
# Experiment: switch fluorescence ratio, 500 uM ATP over buffer (Cy3 cluster intensity, sum of 5 cycles each) (fold (ratio)); higher = stronger signal-on switching upon ATP binding; sequences stand for … in TCGTCGGCAGCGTCAGATGTGTATAAGAGACAGTTTTTTTTTTTTTTTTTTTTTTTTT…TC
# Conditions: aptamer strand: ATP DNA aptamer (quencher-CACCTGGGGGAGTATTGCGGAGGAAGG + anchor), 100 nM annealed; ATP concentration: 500 uM
# Procedure, shortened: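 For every switch-domain sequence, the fluorescence ratio is the mean of per-cluster values, each being summed target-cycle Cy3 intensity over summed buffer-cycle Cy3 intensity. Clusters outside 100-1000 RFU were excluded. On a modified Illumina MiSeq flow-cell, the Cy3-labelled switching-strand clusters were annealed to 100 nM quencher-labelled ATP aptamer, imaged in selection buffer and then after 15 min with 500 uM ATP at 22 °C. Five such cycles were run, with NaOH stripping and re-annealing between them.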
# 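Note: ATP exposure 15 min at 22 °C before imaging.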
row,Sequence,switch fluorescence ratio
1,ATAATGAGGT,1.01 ± 0.042
2,GGAGGGCATC,0.972 ± 0.0046
3,TTAAGTTTTG,1.016 ± 0.0078
4,TATATAATTT,0.987 ± 0.012
5,TTTACGGTGA,1.02 ± 0.043
6,ATGGAATAT,0.969 ± 0.038
7,GCGTAAAGAT,0.992 ± 0.034
8,AGGTTGGGC,1.04 ± 0.034
9,CATGGAGTGT,1.01 ± 0.026
10,CTGGGATTGG,1.001 ± 0.0039
11,TAAGTTGTGC,1.02 ± 0.15
12,GTTGGGGTCG,0.998 ± 0.037
13,ATAAGTGGA,0.997 ± 0.062
14,GAGGGAGTAT,0.9959 ± 0.0027
15,CGAGTTAGGG,0.9906 ± 0.0021
16,ATGTGGGTGT,1.02 ± 0.013
17,TGGAGAGGTC,0.999 ± 0.022
18,AAATGGAGGG,1.01 ± 0.044
19,GGATGTCGCG,1.0124 ± 0.001
20,GGCTTATTTT,1.0031 ± 6.6e-05
21,TTTTGAATTT,0.996 ± 0.032
22,TCGCATTGGT,1.24 ± 0.037
23,TTCAGAAGTC,1.01 ± 0.056

row,Sequence,switch fluorescence ratio
1,TCATGCCCTT,1.02 ± 0.033
2,AGATTTGGGC,1.02 ± 0.031
3,TGTTAATGGG,0.997 ± 0.016
4,AACGGGTGCA,0.9896 ± 0.0011
5,GTTAGGTGGC,0.931 ± 0.021
6,TGTATGGTTT,0.971 ± 0.048
7,TTACTTATAA,1.04 ± 0.018
8,GGGTAGGGAA,0.998 ± 0.016
9,GAGCTTACTT,1.104 ± 0.011
10,GAGAGGAGGG,0.944 ± 0.049
11,GGGTTCCTGG,0.995 ± 0.028
12,AGTAGGGTTT,0.9932 ± 0.0097
13,TCGGCTTAGC,0.981 ± 0.012
14,TTCATTTTG,1.01 ± 0.068
15,ATGATTATGG,1.02 ± 0.014
16,ATAGGTTTTT,0.973 ± 0.024
17,GTGGGGCAGT,0.996 ± 0.025
18,CAGCATCCTT,1.02 ± 0.043
19,CTGGGCACGT,0.997 ± 0.023
20,TCCTATATAA,1.03 ± 0.058
21,CTGTACGGGG,1.02 ± 0.054
22,GGACAGGGGA,1.87 ± 1.2
23,TGTCACTGTG,0.979 ± 0.049

row,Sequence,switch fluorescence ratio
1,ATTTGGTATC,0.997 ± 0.017
2,GGCCGTAATG,1.09 ± 0.019
3,GGGGAATGTA,0.971 ± 0.022
4,GATGTAGTTT,0.993 ± 0.027
5,AACGAGTGTC,1.09 ± 0.11
6,TTGGTTGGCT,1.01 ± 0.018
7,TATTTAGGTA,1.022 ± 0.0031
8,CCGTATATGT,1.19 ± 0.029
9,GGAACATAG,0.9987 ± 0.0023
10,GAGTAGCGGA,0.999 ± 0.042
11,GACAGAGGGT,1.04 ± 0.013
12,AGCATTACCG,1.165 ± 0.0045
13,TGGGGGCAGG,1.01 ± 0.047
14,TCCCCCACAG,2.05 ± 0.22
15,TTAAGCCCAT,1 ± 0.011
16,CATTATGATG,1.01 ± 0.013
17,ACACTTGAAT,0.996 ± 0.027
18,GGGTAAGAAG,0.971 ± 0.013
19,TATTCACGGG,1.0859 ± 0.00034
20,AAGGAGGGAT,1 ± 0.036
21,GTTGAGAGTT,1.01 ± 0.015
22,ATTTTTAGAC,1.03 ± 0.022
23,AGGTACGGAG,1.01 ± 0.019

row,Sequence,switch fluorescence ratio
1,GATCTTATCG,0.984 ± 0.026
2,GAGAGAATGG,0.994 ± 0.0043
3,ACGGACTGGT,1.18 ± 0.014
4,AAGCTTTGTG,0.9786 ± 0.0076
5,GGGAGCGCCG,1.03 ± 0.039
6,CGGAAGATTA,0.9588 ± 0.0045
7,AGGCGGGGTA,0.9847 ± 0.0089
8,TTCGTTAGAA,1.0091 ± 0.00067
9,TAGGTTTGTG,0.993 ± 0.03
10,CGTTCCCCCA,1.355 ± 0.013
11,CAGGTAAGAG,0.987 ± 0.013
12,ATGGGATGGG,1 ± 0.025
13,ACTTTGGTGC,1.03 ± 0.026
14,GGTCCCGGGG,1.05 ± 0.026
15,GCGTTGGGGG,0.995 ± 0.037
16,TTTTTTATTT,0.996 ± 0.025
17,AAAATGGGTA,0.986 ± 0.034
18,ATAGTACTTT,1.05 ± 0.044
19,TTTCGGTTTG,1.02 ± 0.047
20,TTTTAGGTCG,0.987 ± 0.013
21,TGTTTTTGGT,0.978 ± 0.016
22,TTTTGACTTG,0.948 ± 0.0044
23,GAGAGACAGG,1.014 ± 0.0095

row,Sequence,switch fluorescence ratio
1,TGTGAGTAGG,1.02 ± 0.017
2,TATGTATTCT,1 ± 0.017
3,GGGGGCCCTC,0.985 ± 0.01
4,GCATTGAGGG,1.04 ± 0.047
5,ACGGAGGATT,1.04 ± 0.04
6,TATTCGGTTT,0.9889 ± 0.0048
7,GCGTCCGACT,0.986 ± 0.06
8,TTTCAGCCGG,1.04 ± 0.034
9,ATTGAAAAGG,0.96 ± 0.028
10,GAATTTTTTC,1.02 ± 0.016
11,CGGCTACCCG,0.989 ± 0.049
12,TATAAATGTG,0.978 ± 0.027
13,TATTAGTGCT,0.977 ± 0.033
14,ACATCAAAAT,1.001 ± 0.0015
15,CATTTCGTTT,0.957 ± 0.014
16,GGGAGGGTTC,1.01 ± 0.083
17,GGTGGGTTGG,0.982 ± 0.034
18,ATGTGTATTT,1.03 ± 0.023
19,TGCCGGACCG,1.02 ± 0.033
20,TTTTCCCGCA,2.02 ± 0.26
21,CGGTACGAAT,1.034 ± 0.0096
22,AAAAGATTGG,0.969 ± 0.011
23,GGTGGGCAAT,1.11 ± 0.045

row,Sequence,switch fluorescence ratio
1,TGGGGTGGAG,0.97 ± 0.032
2,ATGGATAATG,0.977 ± 0.054
3,TTGGCGGTGG,1.08 ± 0.26
4,AACCGATGCT,1.094 ± 0.005
5,GGTCCTTTGA,1 ± 0.029
6,ATGAAGTAGG,0.989 ± 0.013
7,AGGAGTACTT,1.02 ± 0.019
8,GTGGGCGGTC,0.995 ± 0.057
9,CCGGATATGT,1.08 ± 0.046
10,ACGCTTTAGT,1.01 ± 0.036
11,GAGGCCTTGG,0.983 ± 0.04
12,CTTTTACTCG,1.01 ± 0.073
13,AACACGGGTA,1.02 ± 0.055
14,TTTTTGGAAC,1.01 ± 0.023
15,TAATCGATGG,1.009 ± 0.0012
16,CGGAATGGTA,1.08 ± 0.067
17,AAGGTTCGAA,1.023 ± 0.0033
18,CTAGCGAGGG,1.01 ± 0.014
19,CTCATGTTGG,0.983 ± 0.015
20,TTGCTGGGGG,1.01 ± 0.059
21,TCTCGTGGGA,1.01 ± 0.03
22,GATAGCAGCG,1.01 ± 0.064
23,CGAAAAGGCT,1.01 ± 0.016

row,Sequence,switch fluorescence ratio
1,AAAGTCGTTC,0.977 ± 0.028
2,GGGAGCAAAG,1.04 ± 0.026
3,TCATCTTGGC,1.02 ± 0.096
4,GGAGCTTTGT,0.98 ± 0.015
5,CGATATTGCC,0.9909 ± 0.0097
6,CGGCGAGATA,1.01 ± 0.029
7,CAATGGAGAG,1 ± 0.018
8,TTTAAGGCCT,1 ± 0.021
9,TTGGGTCGAT,0.985 ± 0.024
10,GAGGTTCATT,1.09 ± 0.085
11,CTTATTAGGT,0.985 ± 0.045
12,TTTTAGTGGT,0.992 ± 0.014
13,ATTGATTGAT,1.02 ± 0.024
14,CTTTATGTTT,0.991 ± 0.015
15,AATCAGATCG,0.962 ± 0.018
16,GGGAGTTAGA,0.9885 ± 0.0063
17,GAACGTGGCA,0.9956 ± 0.0095
18,CGATAGATGA,0.993 ± 0.018
19,AGCGTTTCGC,0.996 ± 0.013
